Experimental findings from PMC9270183 (The Journal of Experimental Medicine, 2022) are described below.

Where a chain is given by its changes, count along the chain named.

The target of the experiment is T1, 417N/484K/501Y RBD mutant (SARS-CoV-2, Wuhan-Hu-1 RBD backbone …, 417N | 484K | 501Y).
T1 construct: also called RBD KEN
Kind of experiment: BLI. Conditions: both partners purified.

B1: V007 (antibody, V domains shown)
VH: QVQLVQSGAEVKKPGSSVKVSCKASGDTFSTYTISWVRQAPGQGLEWMGRIIPILGVGNYAQKFQGRVTITADKSTSTAYMELSSLRSEDTAVYYCAHTTPPGDAFDIWGQGTMVTVSS
VL: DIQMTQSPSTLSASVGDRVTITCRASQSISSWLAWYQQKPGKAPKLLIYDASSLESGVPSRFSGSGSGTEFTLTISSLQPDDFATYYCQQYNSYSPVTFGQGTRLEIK
notes: IgG; donor BRA13; source: recombinant monoclonal IgG, produced and purified as previously described
As to B1, the affinity, expressed as Kd, was 5.78 nM.

B2: V043 (antibody, V domains shown)
VH: QLQLQESGPGLVKPSETLSLTCTVSGGSISSNNYYWGWIRQPPGKGLECIGTIYYSGNTYYNPSLKSRVTISVDTSKNQFSLKLGSVTAADTAVYYCARQQWLRDAFHIWGQGTMVTVSS
VL: NFMLTQPHSVSESPGKTVTISCTGSSGSIASNYVQWYQQRPGSAPTIVIYEDNQRPSGVPDRFSGSIDSSSNSASLTISGLKTEDEADYYCQSYDSNIHVVFGGGTKLTVL
notes: IgG; donor BRA15; source: recombinant monoclonal IgG, produced and purified as previously described
As for B2, the Kd is 4.02 nM.

B3: V050 (antibody, V domains shown)
VH: EVQLVESGGGLVKPGGSLRLSCAASGFSFSNAWMSWVRQAPGKGLEWVGRIKSKTDGGTTDYAAPVKGRFTISRDDSQNTLYLQMNSLKTEDTAVYYCITDRFRVHIRGYYGQGTLVTVSS
VL: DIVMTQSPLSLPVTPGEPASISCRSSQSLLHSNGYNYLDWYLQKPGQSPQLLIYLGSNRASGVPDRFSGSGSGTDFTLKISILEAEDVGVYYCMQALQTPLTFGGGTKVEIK
notes: as for B2
Molecule B3 registered a Kd of 66.7 nM.

B4: V049 (antibody, V domains shown)
VH: QVQLVESGGGVVQPGRSLRLSCAASRFPFSNYGMHWVRQAPGKGLEWVAVISFDGNNKYYGDSVKGRLTISRDNSKNTLYLQVKSLRPEDTAVYYCAKDISTGLSLALFRSPDGEGMDVWGQGTTVTVSS
VL: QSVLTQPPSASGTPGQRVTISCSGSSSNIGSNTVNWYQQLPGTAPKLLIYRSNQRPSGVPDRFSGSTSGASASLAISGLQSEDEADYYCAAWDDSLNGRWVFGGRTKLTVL
notes: as for B2
For the molecule B4, binding was characterised by a dissociation constant (Kd) of 20.6 nM.

B5: V051 (antibody, V domains shown)
VH: QVQLVESGGGVVQPGRSLRLSCEASGFTFSTYAMHWVRQAPGKGLEWVAVISYDGNNKYYADSVKGRLTVSRDNSKNTLYLQMNSLRAEDTAEYYCARDDGGYCSSLSCPMDVWGQGTTVTVSS
VL: SYELTQPPSVSVAPGKTARITCGGNSIGSKSVHWYQQRPGQAPVLVIYYDSDRPSGIPERFSGSNSGNTATLTISRVEAGDEADYYCQVWDSTLVFGGGTKLTVL
notes: as for B2
For the molecule B5, binding was characterised by a dissociation constant (Kd) of 7.05 nM.

B6: V033 (antibody, V domains shown)
VH: QVQLVQSGAEVKKPGASVKVSCKASGYTFTSYGISWVRQAPGQGLEWMGWISAYNGNTNYAQKLQGRVTMTTDTSTSTAYMELRSLRSDDTAVYYCARGRFCSSTSCYRAAPNYYYYYMDVWGKGTTVTVSS
VL: NFMLTQPHSVSESPGKTVTISCTRSSGSIASNYVQWYQQRPGSAPTTVIYEDNQRPSGVPDRFSGSIDSSSNSASLTISGLKTEDEADYYCQSYDSSNPYWVFGGGTKLTVL
notes: IgG; donor BRA14; source: recombinant monoclonal IgG, produced and purified as previously described
In turn, B6 displayed a Kd of 10.7 nM.

B7: V039 (antibody, V domains shown)
VH: QVQLQESGPGLVKPSQTLSLTCTVSGGSISSGSYYWSWIRQPAGKGLEWIGRIYTSGSTNYNPSLKSRVTISVDTSKNQFSLKLSSVTAADTAVYYCARADYSDYDNYYFDYWGQGTLVTVSS
VL: B6 VL with T19A, Q35H, A44S, E51D, P99H, Y100N
notes: as for B2
As to B7, the Kd stood at 0.542 nM.

B8: V054 (antibody, V domains shown)
VH: QVQLVESGGGVVQPGRSLRLSCAASGFPFSSFGMHWVRQAPGKGLEWVAVISSDGSNKYYADSVKGRFTISRDNSKNTLYLQMNSLRAEDTAVYYCAKEFTYVVVTALWGTENFDIWGQGTMVTVSS
VL: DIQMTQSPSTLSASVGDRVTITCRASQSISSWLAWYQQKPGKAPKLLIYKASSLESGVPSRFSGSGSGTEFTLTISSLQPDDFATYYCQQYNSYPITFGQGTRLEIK
notes: as for B2
Take B8: the Kd is 15.6 nM.

B9: V045 (antibody, V domains shown)
VH: QVQLVQSGAEVKKPGASVKVSCKASTYTFTSYYIHWVRQAPGQGLEWMGIINPSGGSTSYAQNFQGRVTMTRDTSTSTVYMELSSLRSEDTAVYYCARGVLIPAAGGDFDYWGQGTLVTVSS
VL: QSALTQPRSVSGSPGQSVTISCTGTSSDVGGYKYVSWYQQHPGKAPKLMIYDVSKRPSGVPDRFSGSKSGNTASLTISGLQAEDEADYYCCSYAGSYSWVFGGGTKLTVL
notes: as for B2
Regarding B9, the Kd was determined as 2.79 nM.

B10: V053 (antibody, V domains shown)
VH: QVQLVQSGAEVKKPGASVKVSCKASGYTFTSYYMHWVRQAPGQGLEWMGIINPSAGSTTYAQKFQGRVTMTSDTSTSTVYMELSSLKSEDTAVYYCARDFVLVPASYGMDVWGQGTTVTVSS
VL: QSVLTQPASVSGSPGQSITISCTGTSSDVGSYNLVSWFQQHPGKAPKLMIYQVSKRPSGASNRFSGSKSGNTASLTISGLQAEDEADYYCCSYAGSSTVWVFGGGTKLTVL
notes: as for B2
Molecule B10 came in with a Kd of 2.49 nM.

B11: V057 (antibody, V domains shown)
VH: EVQLVESGGGLVQPGRSLRLSCAASGFTFGDYAMHWVRQAPGKGLEWVSGISWNSGIIGQADSVKGRFTISRDNAKNSLYLQMNSLRVEDTALYYCAKGGGESVEVPADEKLDYWGQGTLVTVSS
VL: QSVLTQPPSVSGAPGQRVTISCTGSSSNIGAGYDVHWYQQLPGTAPKLLIYGNNNRPSGVPDRFSGSKSGTSASLAITGLQAEDEADYYCQSYDSSLSGSWVFGGGTKLTVL
notes: as for B2
In the case of B11, the Kd came to 22 nM.

B12: V061 (antibody, V domains shown)
VH: QVQLVQSGAEVKKPGTSVKVSCKASGYTFKNYGISWVRQAPGQGLEWMGWISAHNGNTNYAQRVQGRVTMTTDTSTSTAYMELRSLRSEDTAVYYCGRESGVASHPGDLDYWGQGTLVTVSS
VL: SYELTQPPSVSVSPGQTARITCSGDALPRQYAYWYQQKPGQAPVLLIYKDSERPSGIPERFSGSSSGTTVTLTISGVQAEDEADYYCQSADSSVVFGGGAKLTVL
notes: as for B2
For the molecule B12, the Kd was 10.3 nM.

B13: V048 (antibody, V domains shown)
VH: QVQLVQSGAEVKKPGASVKVSCKASGYTFTSYVISWVRQAPGQGLEWMGWISAYNGNTNYAQKLQGRVTMTTDTSTSTAYMELRSLRSDDTAVYYCARDVAGITMIVEEVIDAFDIWGQGTMVTVSS
VL: SYELTQPSSVSVSPGQTARITCSGDVLAKKYARWFQQKPGQAPVLVIYKDSERPSGIPERFSGSSSGTTVTLTISGAQVEDEADYYCFSAPDNNRVFGGGTKLTVL
notes: as for B2
In the case of B13, the Kd was determined as 6.26 nM.

B14: V042 (antibody, V domains shown)
VH: QLQLQESGPGLVKPSETLSLTCTVSGGSISSSTNYWGWIRQPPGKGLEWIGSIDYSGSTYYNPSLKSRVTMSVDTSKNQFSLKLSSVTATDTAMYYCARHVIDDSRGYYPAALDHWSQGTLVTVSS
VL: EIVLTQSPATLSLSPGERATLSCRASQSVNNYLAWYQQKPGQAPRLLIYDASNRATGVPARFSGSGSGTDFTLTISSLEPEDFAVYFCQQRSNWPPMYTFGQGTKLEIK
notes: as for B2
Turning to B14, the dissociation constant Kd amounted to 23.3 nM.

B15: V003 (antibody, V domains shown)
VH: EVQLVQSGAEVKKPGESLKISCLGSGYSFTSYWIGWVRQMPGKGLEWMGIIFPADSDTRYSPSFQGQVIISADKSISTAYLQWSSLKASDTAMYYCARLREFGDYYYYGMDVWGQGTTVTVSS
VL: DIQLTQSPSSLSASVGDRVTITCRASQGISSYLAWYQQKPGKAPKLLIYAASTLQSGVPSRFSGSGSGTDFTLTISSLQPEDFATYYCQQLNSYPDFGQGTKLEIK
notes: as for B1
The molecule B15 displayed a Kd of 139 nM.

B16: V046 (antibody, V domains shown)
VH: EVQLVESGGGLVQPGRSLRLSCAASGFTFEDYAMHWVRQAPGKGLEWVSGVSWNSGTIGYADSVKGRFIISRDNAKNSLYLQMNSLRAEDTALYYCANLGPTYYDFSRPTPMDVWGKGTTVTVSS
VL: QSALTQPASVSGSPGQSITISCTGTSSDVGGYNYVSWYQQHPGKAPKLIIYDVSNRPSGVSNRFSGSKSGNTASLTISGLQAEDEADYYCSSYTSSSTWVFGGGTKLTVL
notes: as for B2
Regarding B16, binding was put at a Kd of 2.85 nM.

B17: V037 (antibody, V domains shown)
VH: EVQLVESGGGLVQPGGSLRLSCAASEVIVSSNYMSWVRQAPGKGLEWVSVLYSGGSTFYADSVKGRFTISRDNSKNTLYLQMNSLRAEDTAVYYCARDLGPMGAFDIWGQGTMVTVSS
VL: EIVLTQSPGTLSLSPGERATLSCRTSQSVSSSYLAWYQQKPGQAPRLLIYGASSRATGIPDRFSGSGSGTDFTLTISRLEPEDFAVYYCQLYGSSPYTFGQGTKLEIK
notes: as for B2
The molecule B17 showed a Kd of 0.241 nM.

B18: V056 (antibody, V domains shown)
VH: QVQLVESGGGVVQPGRSLRLSCAASGFPFSNYGMHWVRQAPGKGLEWVAVISYDGSNKYYADSVKGRFTISRDNSKNTLYLQMNSLRAEDTALYYCAKDSRPLPAAMSTYYYYGVDVWGQGTTVTVSS
VL: not shown
notes: as for B2
The molecule B18 displayed a Kd of 7.58 nM.

B19: V060 (antibody, V domains shown)
VH: B18 VH with Q39R, S56L, S85R, L93V, L103V, A105G, V115M
VL: not shown
notes: as for B2
For the molecule B19, the affinity, expressed as Kd, was 4.79 nM.

B20: V004 (antibody, V domains shown)
VH: QVQLQESGPGLVKPSQTLSLTCTVSGGSISSGSYYWSWIRQPAGKGLEWIGRIYTSGSTNYNPSLKSRVTISVDTSKNQFSLKLSSVTAADTAVYYCARDTTDDYYVIWGQGTLVTVSS
VL: DIQMTQSPSTLSASVGDRVTITCRASQSIRSWLAWYQQKPGKAPKLLIYDASSLESGVPSRFSGSGSGTEFTLTISSLQPDDFATYYCQQYNTHFRTFGQGTKVEIK
notes: as for B1
B20 showed a Kd of 2.92 nM.

B21: V038 (antibody, V domains shown)
VH: QVQLVQSGAEVKKPGASVKVSCKASGYTFTGYYVHWVRQAPGQGLEWMGWINPNSGGTNFAQRFQGRVTMTRDTSISTAYMELSRLRSDDTAVYYCARGITVYGVAPDAFDIWGQGTMVTVSS
VL: DIQMTQSPSSLSASVGDRVTITCQASQDISNYLNWYQQKPGKAPKVLIYDASNLEPGVPSRFSGSGSGTDFTFTISSLQPEDIATYYCQQYDNLITFGQGTRLEIK
notes: as for B2
In the case of B21, binding was put at a Kd of 2.37 nM.

B22: V055 (antibody, V domains shown)
VH: QVQLVQSGAEVKKPGSSVKVSCKASGGTFSSYIINWVRQAPGQGLEWMGRIIPILGIANYAQKFHGRVTITADESTSTAYMELSSLRSEDTAVYYCARGGPDPSDSNYAALLYYYYMDVWGKGTTVTVSS
VL: QSVLTQPPSVSAAPGQKVTISCSGSSSNIGSYYVSWYQKLPGTAPKLLIHENNKRPSGIPDRISGSKSGTSATLGITGLQTGDEADYYCGTWDSSLSDVVFGGGTKLTVL
notes: as for B2
In the case of B22, the Kd is 1.99 nM.

B23: V032 (antibody, V domains shown)
VH: QVQLVESGGGVVQPGRSLRLSCAASGFTFSSYGMHWVRQAPGKGLEWVAVISYDGSNKYYADSVKGRFTISRDNSKNTLYLQMNSLRAEDTAVYYCAKVSGPYCSSTSCYTGYWDYWGQGTLVTVSS
VL: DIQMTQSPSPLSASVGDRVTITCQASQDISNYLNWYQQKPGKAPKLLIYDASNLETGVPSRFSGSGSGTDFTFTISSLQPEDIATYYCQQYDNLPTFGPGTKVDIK
notes: as for B6
In the case of B23, the affinity, expressed as Kd, was 27.3 nM.

B24: V044 (antibody, V domains shown)
VH: QVQLVQSGAEVKKPGASVKVSCKASGYTFTSYDINWVRQATGQGLEWMGWMNPNSGYAGYTQKFQGRITMTRNTSISTAYMELSSLRSEDTAVYFCARISSPTRLDPWGQGTLVTVSS
VL: NFMLTQPHSVSESPGKTVTISCSRSRGSIASSFVQWYQQRPGSSPTTVIYDDNQRPSGVPDRFSGSIDSSSNSASLTISGLKTEDEADYYCQSYDSISWVFGGGTKLTVL
notes: as for B2
Molecule B24 returned a Kd of 3.66 nM.

A word on the Kd: it is the concentration at which binding is half-saturated. Higher therefore signals lower affinity.
